Reference: patent publication EP2193147B1

Legend:
human ferritin (human) = human ferritin (human) (UniProt P02794); test: method not stated
[1] = biological target: human liver ferritin, Calbiochem (human) (UniProt P02794); test: solid-phase RIA, 111In-labelled antibody, ferritin immobilised at 5 ug/ml on tubes
[2] = biological target: ferritin of fixed and permeabilized CAPAN-1 cells (human) (UniProt P02794); test: 111In-labelled antibody on fixed and permeabilized CAPAN-1 cells, Lindmo linear extrapolation
[3] = biological target: human liver ferritin, Calbiochem (human) (UniProt P02794); test: solid-phase RIA, 90Y-labelled antibody, ferritin immobilised at 5 ug/ml on tubes

Sequence of human liver ferritin, Calbiochem (human) (P02794 2-183 limits assumed, chain 1 of 2): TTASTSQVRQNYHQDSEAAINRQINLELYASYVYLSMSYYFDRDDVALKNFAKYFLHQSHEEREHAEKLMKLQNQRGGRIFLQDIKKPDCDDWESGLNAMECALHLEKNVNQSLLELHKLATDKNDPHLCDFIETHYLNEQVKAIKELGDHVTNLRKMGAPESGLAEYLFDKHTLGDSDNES
Sequence of human liver ferritin, Calbiochem (human) (P02792 2-175 limits assumed, chain 2 of 2, further chain): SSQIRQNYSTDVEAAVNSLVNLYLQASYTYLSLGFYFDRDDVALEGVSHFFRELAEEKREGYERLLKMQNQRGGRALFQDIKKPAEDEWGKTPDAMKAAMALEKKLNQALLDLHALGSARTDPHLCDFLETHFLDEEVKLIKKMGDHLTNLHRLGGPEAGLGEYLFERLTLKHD
Sequence of ferritin of fixed and permeabilized CAPAN-1 cells (human) (P02794 whole entry, chain 1 of 2): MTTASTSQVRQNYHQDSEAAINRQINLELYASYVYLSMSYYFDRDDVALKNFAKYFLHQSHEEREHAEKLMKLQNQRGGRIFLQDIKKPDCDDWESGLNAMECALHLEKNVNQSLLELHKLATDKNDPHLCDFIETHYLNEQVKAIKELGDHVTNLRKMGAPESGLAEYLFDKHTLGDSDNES
Sequence of ferritin of fixed and permeabilized CAPAN-1 cells (human) (P02792 2-175, chain 2 of 2, further chain): as the sequence (P02792 2-175 limits assumed, chain 2 of 2, further chain) above
Sequence of human ferritin (human) (P02794 2-183 limits assumed, chain 1 of 2): as the sequence (P02794 2-183 limits assumed, chain 1 of 2) above
Sequence of human ferritin (human) (P02792 2-175 limits assumed, chain 2 of 2, further chain): as the sequence (P02792 2-175 limits assumed, chain 2 of 2, further chain) above

Binder	Kd (human ferritin (human)) [nM]	percentage of bound antibody [1] [%]	immunoreactive fraction [2] [%]	percentage of bound antibody [3] [%]
AMB8LK monoclonal IgG1 anti-ferritin antibody (murine, unconjugated) (antibody, from another filing, V domains shown) VH: QVQLKESGPGLVAPSQSLSITCTVSGFSLSRYSVHWVRQPPGKGLEWLGTIWGGGSTDYNSVLKSRLSISKDNSKSQVLLKVNSLQTDDTAIYYCASGPYYYTMDYWGQGTSVTVSS VL: QIVLTQSPAILSASLGEEITLTCSASSSVTFMHWYQQKSGTSPKLLIYTTSNLASGVPSRFSGSGSGTFYSLTISSVEAEDAADYYCHQWSSYPTFGSGTKLEIKR	5.1	–	–	–
Bz-CHX-A"-DTPA-AMB8LK (antibody, from another filing, V domains shown) VH: QVQLKESGPGLVAPSQSLSITCTVSGFSLSRYSVHWVRQPPGKGLEWLGTIWGGGSTDYNSVLKSRLSISKDNSKSQVLLKVNSLQTDDTAIYYCASGPYYYTMDYWGQGTSVTVSS VL: QIVLTQSPAILSASLGEEITLTCSASSSVTFMHWYQQKSGTSPKLLIYTTSNLASGVPSRFSGSGSGTFYSLTISSVEAEDAADYYCHQWSSYPTFGSGTKLEIKR	–	74.8	43	98.9

More lines, now with the values ahead:

Kd (human ferritin (human)) [nM]	percentage of bound antibody [1] [%]	immunoreactive fraction [2] [%]	percentage of bound antibody [3] [%]	Binder
–	76.8	24	73.2	Bz-DOTA-AMB8LK (antibody, from another filing, V domains shown) VH: QVQLKESGPGLVAPSQSLSITCTVSGFSLSRYSVHWVRQPPGKGLEWLGTIWGGGSTDYNSVLKSRLSISKDNSKSQVLLKVNSLQTDDTAIYYCASGPYYYTMDYWGQGTSVTVSS VL: QIVLTQSPAILSASLGEEITLTCSASSSVTFMHWYQQKSGTSPKLLIYTTSNLASGVPSRFSGSGSGTFYSLTISSVEAEDAADYYCHQWSSYPTFGSGTKLEIKR
–	87	52	100	Bz-DTPA-AMB8LK (antibody, from another filing, V domains shown) VH: QVQLKESGPGLVAPSQSLSITCTVSGFSLSRYSVHWVRQPPGKGLEWLGTIWGGGSTDYNSVLKSRLSISKDNSKSQVLLKVNSLQTDDTAIYYCASGPYYYTMDYWGQGTSVTVSS VL: QIVLTQSPAILSASLGEEITLTCSASSSVTFMHWYQQKSGTSPKLLIYTTSNLASGVPSRFSGSGSGTFYSLTISSVEAEDAADYYCHQWSSYPTFGSGTKLEIKR
